No end group written: not given here.
Tests used:
[1] = molecular target: T1, human TREM2 full length stalk region peptide (aa 129-172) (human, biotinylated (site not stated)); assay: fluorescence polarization assay with TREM2 stalk peptide and ADAM17
T1 construct: also called Human TREM2 peptide (aa 129-172); full-length TREM2 stalk peptide
T1 peptide: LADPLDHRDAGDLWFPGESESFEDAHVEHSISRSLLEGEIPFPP
Experimental: The ability of anti-TREM2 antibodies to inhibit TREM2 stalk peptide cleavage by ADAM17 was also analyzed using a fluorescence polarization assay. TREM2 stalk peptides were first prepared in assay buffer (25 mM Tris pH 7.5, 2.5 μM ZnCl₂, 0.005% Brij-35) with streptavidin. Anti-TREM2 antibodies were then pre-incubated with TREM2 stalk peptides for 30 minutes at room temperature. After the pre-incubation period, ADAM17 (R&D systems, Catalog No. 930-ADB) was added and incubated with the peptides for 20 hours at 37° C. The following day, samples were further diluted in assay buffer and transferred to a black opaque 384-well plate. Fluorescence polarization was subsequently measured on Perkin Elmer EnVision plate reader. The fluorescence polarization of TREM2 stalk peptides pre-incubated with anti-TREM2 antibody was compared to fluorescence polarization of full-length TREM2 stalk peptide and enzyme control (full-length TREM2 stalk peptide with ADAM17).

[2] = molecular target: T2, human TREM2 on the cell surface (human, UniProt Q9NZC2 19-230); assay: cell-based or functional assay
T2 sequence: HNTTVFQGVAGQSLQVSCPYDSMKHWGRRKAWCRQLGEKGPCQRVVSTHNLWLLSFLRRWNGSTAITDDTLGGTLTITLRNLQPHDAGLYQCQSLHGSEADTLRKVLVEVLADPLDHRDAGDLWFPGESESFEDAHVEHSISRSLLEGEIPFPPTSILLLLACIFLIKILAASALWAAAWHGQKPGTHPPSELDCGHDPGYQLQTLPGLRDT

[3] = molecular target: T1, human TREM2 full length stalk region …; assay: ELISA on biotinylated peptide captured by streptavidin; A450 normalised to isotype control
Outline: (§1)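 Sandwich ELISA: biotinylated TREM2 stalk peptides captured on streptavidin-coated plates, antibodies added for 1 h in 1% BSA/PBS, binding detected with anti-human kappa-HRP and TMB at A450. Values expressed as fold over isotype-control background.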

[4] = molecular target: T3, mouse TREM2 full length stalk region peptide (aa 131-169) (mouse, UniProt Q99NH8 131-169, biotinylated (site not stated)); assay: as above
T3 peptide (looked up): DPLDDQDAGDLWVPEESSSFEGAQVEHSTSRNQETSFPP
Outline: as §1

[5] = molecular target: T4, human TREM2 truncated stalk peptide (aa 149-163) (human, also: biotinylated (site not given here)); assay: as above
T4 construct: also called Human TREM2 peptide (aa 149-163); truncated stalk peptide containing the ADAM10/17 cleavage site
T4 peptide: SFEDAHVEHSISRSL
Outline: as §1

[6] = molecular target: T2, human TREM2 on the cell surface; assay: cell binding, human macrophages, dose titration
[7] = molecular target: T5, His-tagged human TREM2 ECD (human, UniProt Q9NZC2 19-172); assay: SPR (Biacore), antibody captured via anti-human Fab, recombinant TREM2 ECD injected, 1:1 fit
T5 construct: Biacore and HDX say only recombinant human TREM2 (ECD); also called recombinant human TREM2; hTREM2
T5 sequence: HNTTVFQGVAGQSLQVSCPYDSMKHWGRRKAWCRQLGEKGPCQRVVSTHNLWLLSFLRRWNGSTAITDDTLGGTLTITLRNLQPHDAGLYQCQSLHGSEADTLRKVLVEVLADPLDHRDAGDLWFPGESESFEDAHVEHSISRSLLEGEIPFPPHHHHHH
Outline: (§2)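 Antibodies captured on a CM5 chip via anti-human Fab, then 3-fold serial dilutions of recombinant human or cynomolgus TREM2 ECD injected at 30 μL/min in HBS-EP+. Association 300 s, dissociation 600+ s, blank-cell subtracted; kon and koff from simultaneous 1:1 Langmuir fit.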

[8] = molecular target: T6, recombinant cynomolgus TREM2 ECD (cynomolgus); assay: as above
T6 construct: extracellular domain; also called cyno TREM2
Outline: as §2

[9] = molecular target: T5, His-tagged human TREM2 ECD; assay: SPR (Biacore); Table 5 run, parent beside its humanized variants
[10] = molecular target: T2, human TREM2 on the cell surface; assay: flow cytometry, dose-titrated binding to HEK293-H6 cells

B1: CL0020107 (antibody, V domains shown)
VH: QVQLQQPGAELVKPGASVKMSCRASGYTFTNYWISWVKQRPGQGLEWIGDIYPHSTSTNYNERFRSKATLTVDKSSTTAYMQLSSLTSEDSAVYYCAREGFGISAWGQGTTLTVSS
VL: QIVLTQSPAIMSASPGEKVTITCSATSSVSYMHWFQQKPGTSPKLWIYSTSNLASGVPARFSGSGSGTSHSLTISRMEAEDAATYYCQQRSSYPLTFGSGTKLELK
notes: also called Clone CL0020107
In the case of B1, the binding result [1] is reported as “no binding”, the “NFAT EC50 (nM), plate coated mAb” value [2] is reported as 10.9 nM and the “Survival EC50 (nM), plate coated mAb, human macrophages” value [2] is reported as 0.53 nM. For the same binder, the “pSyk activation (human macrophages) EC50 (nM)” value [2] was 28.5 nM, the “fold over background (A450)” value [3] was 1.7 fold and the “fold over background (A450)” value [4] was 1.3 fold. For the same binder, the “fold over background (A450)” value [5] was 1.4 fold, the EC50 [6] was 4.4 nM and the Kd [7] was 1.47 nM. The Kd [8] was 104 nM.

B2: CL0020188 (antibody, V domains shown)
VH: EVKLLDSGGGLVQAGGSLRLSCAGSGFTFTDFYMSWIRQPPGKAPEWLGVIRNKANGYTAGYNPSVKGRFTISRDNTQNILYLQMNTLRAEDTAIYYCARLTYGFDYWGQGVMVTVSS
VL: DIVMTQGALPNPVPSGESASITCQSSKSLLHSNGKTYLNWYLQRPGQSPQLLIYWMSTRASGVSDRFSGSGSGTDFTLKISSVEAEDVGVYYCQQFLEYPFTFGSGTKLEIK
notes: also called Clone CL0020188
For B2, the “NFAT EC50 (nM), plate coated mAb” value [2] was 91.2 nM, the “Survival EC50 (nM), plate coated mAb, human macrophages” value [2] was 2.4 nM and the “pSyk activation (human macrophages) EC50 (nM)” value [2] was 7.7 nM. The “fold over background (A450)” value [3] was 51 fold, the “fold over background (A450)” value [4] was 33 fold and the Kd [9] was 9.5 nM. For the same binder, the EC50 [6] was 0.5 nM, the EC50 [10] was 0.44 nM and the Kd [7] was 5.2 nM. The Kd [8] was 2 nM.

Reference: US20220119522A1 (DENALI THERAPEUTICS, published 2022)
